T1: untagged SPD-5 aa 101-473, not phosphorylated (C. elegans, UniProt P91349 101-473)
T1 construct: source: E. coli BL21(DE3) pLysS, purified (glutathione agarose, cleaved off GST)
T1 sequence (looked up): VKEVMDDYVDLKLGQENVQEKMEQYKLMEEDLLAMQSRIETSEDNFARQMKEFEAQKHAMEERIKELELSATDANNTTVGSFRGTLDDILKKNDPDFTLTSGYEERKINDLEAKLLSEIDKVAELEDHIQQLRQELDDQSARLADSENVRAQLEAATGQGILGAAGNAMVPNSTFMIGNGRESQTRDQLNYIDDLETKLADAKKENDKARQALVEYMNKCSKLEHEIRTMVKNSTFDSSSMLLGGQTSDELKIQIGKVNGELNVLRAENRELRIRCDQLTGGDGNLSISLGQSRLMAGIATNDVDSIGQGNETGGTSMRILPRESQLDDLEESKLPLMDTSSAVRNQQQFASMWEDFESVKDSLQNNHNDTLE


How the values were obtained:
[1] = biological target: T1, untagged SPD-5 aa 101-473, not …; assay: pull-down; MBP pull-down: purified SPD-5 fragments mixed at 2.0 μM with or without 500 nM PLK1(T194D) in kinase buffer 1 h at 23°C; then 75 nM each with 2 μg anti-MBP antibody in lysis buffer 2 h at 4°C and protein A beads 1 h at 4°C; five washes; immunoblot or Coomassie; details: both partners purified
[2] = biological target: the molecule itself; assay: SEC-MALS; Superose 6 increase 10/300 or Superdex 200 increase 10/300 in 20 mM Tris-HCl pH 7.5, 50 mM NaCl, 5 mM EGTA, 2 mM MgCl2, 1 mM DTT; 120 μL of ~2.0 mg/ml protein loaded; with or without PLK1 phosphorylation

binding result [1] | Binder | stoichiometry N [2]
binds | MBP-6His-HA (M6HH)-tagged SPD-5 aa 1-101, not phosphorylated (domain or fragment, C. elegans, UniProt P91349 1-101, looked up, also called PRGB1; source: E. coli BL21(DE3) pLysS, purified (Ni-NTA)) MEDNSVLNEDSNLEHVEGQPRRSMSQPVLNVEGDKRTSSTSATQQQVLSGAFSSADVRSIPIIQTWEENKALKTKITILRGELQMYQRRYSEAKEASQKRV | 
 | untagged SPD-5 aa 1-473, not phosphorylated (domain or fragment, C. elegans, UniProt P91349 1-473, looked up, also called SPD-5 N-terminus; source: E. coli BL21(DE3) pLysS, purified (glutathione agarose, cleaved off GST)) MEDNSVLNEDSNLEHVEGQPRRSMSQPVLNVEGDKRTSSTSATQQQVLSGAFSSADVRSIPIIQTWEENKALKTKITILRGELQMYQRRYSEAKEASQKRVKEVMDDYVDLKLGQENVQEKMEQYKLMEEDLLAMQSRIETSEDNFARQMKEFEAQKHAMEERIKELELSATDANNTTVGSFRGTLDDILKKNDPDFTLTSGYEERKINDLEAKLLSEIDKVAELEDHIQQLRQELDDQSARLADSENVRAQLEAATGQGILGAAGNAMVPNSTFMIGNGRESQTRDQLNYIDDLETKLADAKKENDKARQALVEYMNKCSKLEHEIRTMVKNSTFDSSSMLLGGQTSDELKIQIGKVNGELNVLRAENRELRIRCDQLTGGDGNLSISLGQSRLMAGIATNDVDSIGQGNETGGTSMRILPRESQLDDLEESKLPLMDTSSAVRNQQQFASMWEDFESVKDSLQNNHNDTLE | 2
 | untagged SPD-5 aa 1-473, PLK1-phosphorylated (domain or fragment, C. elegans, UniProt P91349 1-473, looked up, phosphorylated in vitro by PLK1(T194D); sites not all mapped (predicted PLK1 sites S5, S11, S170, T178, T198, T274, T335, S339, S340), source: E. coli BL21(DE3) pLysS, purified (glutathione agarose, cleaved off GST); incubated with PLK1-6His and ATP) MEDNSVLNEDSNLEHVEGQPRRSMSQPVLNVEGDKRTSSTSATQQQVLSGAFSSADVRSIPIIQTWEENKALKTKITILRGELQMYQRRYSEAKEASQKRVKEVMDDYVDLKLGQENVQEKMEQYKLMEEDLLAMQSRIETSEDNFARQMKEFEAQKHAMEERIKELELSATDANNTTVGSFRGTLDDILKKNDPDFTLTSGYEERKINDLEAKLLSEIDKVAELEDHIQQLRQELDDQSARLADSENVRAQLEAATGQGILGAAGNAMVPNSTFMIGNGRESQTRDQLNYIDDLETKLADAKKENDKARQALVEYMNKCSKLEHEIRTMVKNSTFDSSSMLLGGQTSDELKIQIGKVNGELNVLRAENRELRIRCDQLTGGDGNLSISLGQSRLMAGIATNDVDSIGQGNETGGTSMRILPRESQLDDLEESKLPLMDTSSAVRNQQQFASMWEDFESVKDSLQNNHNDTLE | 2
 | MBP-6His-HA (M6HH)-tagged SPD-5 aa 1-473, not phosphorylated (domain or fragment, C. elegans, UniProt P91349 1-473, looked up, source: E. coli BL21(DE3) pLysS, purified (Ni-NTA)) MEDNSVLNEDSNLEHVEGQPRRSMSQPVLNVEGDKRTSSTSATQQQVLSGAFSSADVRSIPIIQTWEENKALKTKITILRGELQMYQRRYSEAKEASQKRVKEVMDDYVDLKLGQENVQEKMEQYKLMEEDLLAMQSRIETSEDNFARQMKEFEAQKHAMEERIKELELSATDANNTTVGSFRGTLDDILKKNDPDFTLTSGYEERKINDLEAKLLSEIDKVAELEDHIQQLRQELDDQSARLADSENVRAQLEAATGQGILGAAGNAMVPNSTFMIGNGRESQTRDQLNYIDDLETKLADAKKENDKARQALVEYMNKCSKLEHEIRTMVKNSTFDSSSMLLGGQTSDELKIQIGKVNGELNVLRAENRELRIRCDQLTGGDGNLSISLGQSRLMAGIATNDVDSIGQGNETGGTSMRILPRESQLDDLEESKLPLMDTSSAVRNQQQFASMWEDFESVKDSLQNNHNDTLE | 2
 | MBP-6His-HA (M6HH)-tagged SPD-5 aa 1-345, not phosphorylated (domain or fragment, C. elegans, UniProt P91349 1-345, looked up, source: E. coli BL21(DE3) pLysS, purified (Ni-NTA)) MEDNSVLNEDSNLEHVEGQPRRSMSQPVLNVEGDKRTSSTSATQQQVLSGAFSSADVRSIPIIQTWEENKALKTKITILRGELQMYQRRYSEAKEASQKRVKEVMDDYVDLKLGQENVQEKMEQYKLMEEDLLAMQSRIETSEDNFARQMKEFEAQKHAMEERIKELELSATDANNTTVGSFRGTLDDILKKNDPDFTLTSGYEERKINDLEAKLLSEIDKVAELEDHIQQLRQELDDQSARLADSENVRAQLEAATGQGILGAAGNAMVPNSTFMIGNGRESQTRDQLNYIDDLETKLADAKKENDKARQALVEYMNKCSKLEHEIRTMVKNSTFDSSSMLLGG | 2
